Laboratory results reported in article doi:10.1101/2022.06.09.495492.

Target: α-actin, endogenous (T. vaginalis) (T. vaginalis (endogenous in TH17 trophozoites))
Experiment: co-sedimentation

TvFACPα (F-actin capping protein subunit α homolog), endogenous (natural protein)
percent co-sedimented with F-actin (F-actin fraction): 25%
